According to patent publication US20210275641A1 (SYNTHEKINE, published 2021):
Changes are numbered by the printed parent chain. Names may count otherwise.

T1: human high affinity trimeric IL-2 receptor (CD25/CD122/CD132) (human, UniProt P01589 22-272; P14784 27-551; P31785 23-369)
T1 sequence 1: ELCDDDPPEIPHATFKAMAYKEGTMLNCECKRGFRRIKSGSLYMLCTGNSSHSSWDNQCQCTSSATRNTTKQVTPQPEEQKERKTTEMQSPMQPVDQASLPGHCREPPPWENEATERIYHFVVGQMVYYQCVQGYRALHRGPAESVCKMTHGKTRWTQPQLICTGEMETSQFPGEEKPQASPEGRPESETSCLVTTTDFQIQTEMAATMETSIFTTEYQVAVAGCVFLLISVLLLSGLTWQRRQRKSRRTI
T1 sequence 2: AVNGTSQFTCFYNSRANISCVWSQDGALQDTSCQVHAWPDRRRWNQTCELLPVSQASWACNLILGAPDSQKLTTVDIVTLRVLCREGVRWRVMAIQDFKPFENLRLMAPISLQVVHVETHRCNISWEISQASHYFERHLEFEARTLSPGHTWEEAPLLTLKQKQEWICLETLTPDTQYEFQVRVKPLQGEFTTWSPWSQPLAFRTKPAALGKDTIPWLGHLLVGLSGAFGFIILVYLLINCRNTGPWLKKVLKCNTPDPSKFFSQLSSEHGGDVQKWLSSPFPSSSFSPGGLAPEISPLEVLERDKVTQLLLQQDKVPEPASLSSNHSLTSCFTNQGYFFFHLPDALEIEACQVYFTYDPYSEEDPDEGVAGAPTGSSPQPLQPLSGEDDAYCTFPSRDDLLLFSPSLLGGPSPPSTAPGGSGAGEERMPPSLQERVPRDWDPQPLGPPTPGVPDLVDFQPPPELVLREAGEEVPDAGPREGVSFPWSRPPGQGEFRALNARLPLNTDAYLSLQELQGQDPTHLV
T1 sequence 3: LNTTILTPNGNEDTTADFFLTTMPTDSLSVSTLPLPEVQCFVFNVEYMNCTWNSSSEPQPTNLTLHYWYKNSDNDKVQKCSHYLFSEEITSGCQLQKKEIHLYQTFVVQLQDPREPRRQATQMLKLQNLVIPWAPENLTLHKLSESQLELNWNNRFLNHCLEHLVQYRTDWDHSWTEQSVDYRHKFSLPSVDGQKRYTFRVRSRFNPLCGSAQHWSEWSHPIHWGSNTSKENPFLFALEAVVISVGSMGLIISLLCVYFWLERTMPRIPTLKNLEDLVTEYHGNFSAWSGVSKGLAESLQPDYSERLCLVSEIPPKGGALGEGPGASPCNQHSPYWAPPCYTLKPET

B1: hIL2 mutein REH (L18R, Q22E, Q126H) (ligand)
chain: APTSSSTKKTQLQLEHLRLDLEMILNGINNYKNPKLTRMLTFKFYMPKKATELKHLQCLEEELKPLEEVLNLAQSKNFHLRPRDLISNINVIVLELKGSETTFMCEYADETATIVEFLNRWITFCHSIISTLT
B2: KEH (ligand)
cytokine: B1 chain with R18K
B3: EEH (ligand)
cytokine: B1 chain with R18E
B4: FEH (ligand)
cytokine: B1 chain with R18F
B5: QEH (ligand)
cytokine: B1 chain with R18Q
B6: WEH (ligand)
cytokine: B1 chain with R18W
B7: SEH (ligand)
cytokine: B1 chain with R18S

Biological target: T1, human high affinity trimeric IL-2 …
Assay: cell-based or functional assay

| Binder | pSTAT5 ratio YT CD25/YT, dilution factor 2, lower table | pSTAT5 ratio YT CD25/YT, dilution factor 2, upper table | pSTAT5 ratio YT CD25/YT, dilution factor 4, lower table | pSTAT5 ratio YT CD25/YT, dilution factor 4, upper table | pSTAT5 ratio YT CD25/YT, dilution factor 8, lower table | pSTAT5 ratio YT CD25/YT, dilution factor 8, upper table | pSTAT5 ratio YT CD25/YT, dilution factor 16, lower table | pSTAT5 ratio YT CD25/YT, dilution factor 16, upper table | pSTAT5 ratio YT CD25/YT, dilution factor 32, lower table | pSTAT5 ratio YT CD25/YT, dilution factor 32, upper table |
| --- | --- | --- | --- | --- | --- | --- | --- | --- | --- | --- |
| B1 | 0.8 | 0.9 | 0.9 | 1 | 1 | 1.1 | 1.3 | 1.3 | 1.6 | 1.8 |
| B2 | – | 1.1 | – | 1 | – | 1.1 | – | 1.4 | – | 1.6 |
| B3 | – | 1.4 | – | 2.3 | – | 4.8 | – | 8.4 | – | 14.7 |
| B4 | – | 0.9 | – | 1.2 | – | 1.3 | – | 1.4 | – | 1.7 |
| B5 | – | 1.1 | – | 1.3 | – | 1.8 | – | 3.1 | – | 5.8 |
| B6 | – | 1.1 | – | 1.4 | – | 1.5 | – | 2.2 | – | 3.9 |
| B7 | – | 1.2 | – | 1.5 | – | 2.5 | – | 4 | – | 7.8 |

Same assay, conditions: not given

| Binder | pSTAT5 ratio YT CD25/YT, dilution factor 64, lower table | pSTAT5 ratio YT CD25/YT, dilution factor 64, upper table | pSTAT5 ratio YT CD25/YT, dilution factor 128, lower table | pSTAT5 ratio YT CD25/YT, dilution factor 128, upper table |
| --- | --- | --- | --- | --- |
| B1 | 2.4 | 2.9 | 3.9 | 4.7 |
| B2 | – | 2.3 | – | 4 |
| B3 | – | 16.9 | – | 17 |
| B4 | – | 2.9 | – | 4.7 |
| B5 | – | 8.3 | – | 11.7 |
| B6 | – | 6.4 | – | 10 |
| B7 | – | 11.4 | – | 15.1 |
